In patent publication US20110224139A1:
Values belong to the molecule of their own block, whether it stands above or below them.

How the values were obtained:
[1] = biological target: T1, Ac-…-CONH2 (RAD16-II) self-assembling peptide, as nanofiber hydrogel; test: in vitro binding experiment: release of 100 nM Alexa-488 labeled protein from a nanofiber hydrogel in culture inserts
T1 sequence (peptide, N-terminal acetyl (Ac); C-terminal amide (CONH2)): RARADADARARADADA

[2] = biological target: T2, SDF-1(S4V)-N-terminal peptide (first 8 amino acids of SDF-1(S4V), FRET peptide)
T2 chain: KPVVLSYR

[3] = biological target: T3, SDF-1-N-terminal peptide (first 8 amino acids of SDF-1, FRET peptide)
T3 chain: KPVSLSYR

- percent released from the nanofibers over 24 hours [1]: 73%
Molecule: Alexa-488 labeled SSDF-1 (from UniProt P48061 22-89) (ligand)

B1: Human recombinant MMP-2 (R&D Systems), activated with 4-aminophenylmercuric acetate (protein)
chain: YNFFPRKPKWDKNQITYRIIGYTPDLDPETVDDAFARAFQVWSDVTPLRFSRIHDGEADIMINFGRWEHGDGYPFDGKDGLLAHAFAPGTGVGGDSHFDDDELWTLGEGQVVRVKYGNADGEYCKFPFLFNGKEYNSCTDTGRSDGFLWCSTTYNFEKDGKYGFCPHEALFTMGGNAEGQPCKFPFRFQGTSYDSCTTEGRTDGYRWCGTTEDYDRDKKYGFCPETAMSTVGGNSEGAPCVFPFTFLGNKYESCTSAGRSDGKMWCATTANYDDDRKWGFCPDQGYSLFLVAAHEFGHAMGLEHSQDPGALMAPIYTYTKNFRLSQDDIKGIQELYGASPDIDLGTGPTPTLGPVTPEICKQDIVFDGIAQIRGEIFFFKDRFIWRTVTPRDKPMGPLLVATFWPELPEKIDAVYEAPQEEKAVFFAGNEYWIYSASTLERGYPKPLTSLGLPPDVQRVDAAFNWSKNKKTYIFAGDKFWRYNEVKKKMDPGFPKLIADAWNAIPDNLDAVVDLQGGGHSYFFKGAYYLKLENQSLKSVKFGSIKSDWLGC
- amount of peptide cleaved after 4 hours (FRET peptide cleavage) [2]: no significant amount (1±3 pmol)
- initial cleavage rate [2]: 0.1±0.1×10^-10M s^-1
- amount of peptide cleaved after 4 hours (FRET peptide cleavage) [3]: 205 ± 18 pmol
- initial cleavage rate [3]: 2.0±0.1×10^-10M s^-1
- rate of cleavage relative to SDF-1 (times lower), SDS-PAGE (Sumo-SDF-1(S4V)-RAD): the rate of SDF-1(S4V) cleavage is at least 48 times lower than SDF-1
- cleavage seen by SDS-PAGE (Sumo-SDF-1-RAD): more Sumo-SDF-1-RAD was cleaved within 1 hour than Sumo-SDF-1(S4V)-RAD in 48 hours
